Experimental findings from PMC11320570 (ACS Infectious Diseases, 2024) are described below.

Assay [1] concerns the target DENV-2 EDIII wild-type Fc-fusion antigen (Dengue virus type 2, strain 16681, UniProt P29990). The assay is described as follows: ELISA. The conditions noted are these: both partners purified.
In assay [2] the target is deglycosylated EDIII WT Fc-fusion antigen (Dengue virus type 2, strain 16681, UniProt P29990). The assay is described as follows: ELISA. The note with it: both partners purified.

B1: 2C8 mouse antibody (antibody, V domains shown)
VH: EVKLVESGGGLVQPGGSLSLSCAASGFTFTDYYMTWVRQPPGKALEWLALIRNKASGYTTEYSASVKGRFTISRDNSQSILYLQMNALRAEDSATYYCTRAKWDGHYFDYWGQGTTLTVSS
VL: DIQMTQSPASLSVSVGETVTITCRATKNIYNNLAWYQQKQGRSPQLLVYAATNLADGVPSRFSGSGSGTQFSLRINSLQSEDFGNYYCQHFWHTPWTFGGGTKLEIK
notes: Mouse IgG2a; source: hybridoma culture supernatant, purified (HiTrap protein-G HP)
In the case of B1, in assay [1], the binding result is on record as “binds”.

B2: 513 engineered and humanized antibody (antibody, V domains shown)
VH: QVQLVQSGAEVKKPGASVKVSCKAGFNIKDVYMSWVRQAPEQGLEWMGRIDPENGDTKYDPKLQGRVTMTADTSTNTAYMELRSLRSDDTAVYYCARGWEGFAYWGQGTLVTVSS
VL: DIVMTQSPASLAVSLGQRATISCRASENVDKYGNSFMHWYQQKPGQPPKLLIYRASELQWGVPDRFSGSGSGTDFTLTISSLQAEDVAVYYCQRSNEVPWTFGQGTKLEIK
On to B2, for which, in assay [1], the binding result is on record as “binds”.

B3: 3H5 mouse antibody (antibody, V domains shown)
VH: QVQLQQSGAEVARPGASVKLSCKASGYTFTSYWLQWVKQRPGQGLEWIGAIWPGDDDTRYAQKFQGKATMTADKSSSTAYIQLSNLASEDSAVYYCARKGGFAMDYWGQGTSVTVSS
VL: NIVMTQSPTSLAVSLGQRATISCRASESVDSFGKSFMHFYQQKPGQPPKLLIHLASNLESGVPARFTGRGSRTDFTLTIDPVEADDAATYYCQQNNEVPFTFGSGTKLEVK
In the case of B3, the binding result in assay [2] and in assay [1] was “binds” throughout.
